Two substances from publication PMC9284731 can be followed below.

Data set [1] relates to RBP10 fragment with only 10 residues C-terminal to the RRM (Trypanosoma brucei). Description: EMSA. The note with it: binding buffer for gel shifts not in material (only protein buffers: elution 50 mM NaH2PO4, 300 mM NaCl, 250 mM imidazole, pH 8.0); sometimes dialyzed to 10 mM …; scale: affinity relative to P1.
Data set [2] has as its system RBP10 fragment with no residues C-terminal to the RRM (Trypanosoma brucei). Description: EMSA. The following applies: binding buffer for gel shifts not in material (only protein buffers: elution 50 mM NaH2PO4, 300 mM NaCl, 250 mM imidazole, pH 8.0); sometimes dialyzed to 10 mM …; scale: affinity relative to P1. (A gel shift assay detects complexes by their altered migration in electrophoresis.)

A value given as a limit tells only on which side of the number the result lay.

For probe with two copies of UA(U)6, the binding signal in data set [1] and in data set [2] was under 0.1 in each case.

For “probe with two copies of UACUCUCU (mutant)”, the binding signal in data set [1] and in data set [2] was under 0.1 throughout.
